Entries after “also recorded” stand apart in the source; their conditions may differ. Marks after values point to notes of the source that are not given here.
Legend:
[1] = test system: capillary endothelial cells; test: bFGF-induced proliferation of capillary endothelial cells; assay type: cell-based; details: PEDF doses of 1.0 nM or greater
Text: Human PEDF cDNA was engineered by polymerase chain reaction to encode a COOH-terminal hexahistidine tag, cloned into pCEP4 (Invitrogen, Carlsbad, Calif.), and transfected into human embryonic kidney cells. Recombinant PEDF was purified from the conditioned media with the Xpress Protein Purification System (Invitrogen, Carlsbad, Calif.).

[2] = test system: bovine adrenal capillary endothelial cells; test: Endothelial cell migration assay (modified Boyden chamber), bovine adrenal capillary endothelial cells; assay type: cell-based
Method: (§1) The cells were plated on gelatinized Nucleopore membranes (5 μm pores for bovine capillary cells and 8 μm pores for other cells) in an inverted modified Boyden chamber. After two hours, the chamber was reinverted and test substances added to the top wells of each. Specifically, populations were exposed to either culture medium alone (control), 10 ng/ml bFGF, 2 nM PEDF (full length PEDF), or both 10 ng/ml bFGF (basic fibroblast growth factor) and 10 nM PEDF. The cells were then permitted to migrate for 3-4 hours. Following this, the membranes were fixed and stained, and the number of cells that had migrated were counted.
The amount of a given factor necessary to achieve 50% of migration was determined and is reported here as ED50.
In particular, aFGF was employed at a concentration of 50 ng/ml, bFGF was employed at a concentration of 10 ng/ml, IL-8 was employed at a concentration of 40 ng/ml, PDGF was employed at a concentration of 250 pg/ml, and VEGF was employed at a concentration of 100 pg/ml.
In studies aimed at identifying antiangiogenic factors in the eye that might be regulated by the retinoblastoma tumor suppressor gene (Rb), media was fractionated where the media was previously conditioned by a retinoblastoma cell line that had been infected with a retrovirus expressing the wild-type Rb gene, WERI-Rb-27R. (Xu et al., 1991, Cancer Res. 51:4481). […] PEDF was purified from WERI-Rb-27R serum-free conditioned media by sequential steps consisting of dialysis (molecular mass cutoff, 30 kD) against distilled water, 60 to 95% ammonium sulfate precipitation, step elution from lentil lectin Sepharose 4B (Pharmacia) with 0.5 M α-methyl-D-mannopyranoside, and elution from a HiTrap heparin Sepharose column (Pharmacia) with increasing NACl gradient. (Xu, et al., 1991, Cancer Res. 51:4481). […] Migration assays were performed in quadruplicate for each sample with bovine adrenal capillary endothelial cells or human dermal microvascular endothelial cells (Clonetics, San Diego, Calif.) as described. (Polverini, et al., 1991, Methods Enzymol. 198:440). To combine multiple experiments, background migration (Bkgd) was first subtracted toward vehicle (0.1% bovine serum albumin) and them normalized data by setting maximum migration toward inducer alone to 100%. All experiments were repeated two to five times. Statistics were performed on raw data before normalization with the Student's t test. Standard errors were converted to percentages. […] Single-letter abbreviations for the amino acid residues are as follows: A, Ala; D, Asp; E. Glu; F. Phe; G, Gly; I, Ile; L, Leu; M, Met; P, Pro; Q, Gln; R, Arg; S, Ser; T, Thr; V, Val; X, any amino acid; and Y, Tyr.

retina of C57/BL6 mice = test: Hyperoxia-induced ischemic retinopathy, systemic treatment; assay type: in vivo, mouse; details: day 12 through 16
Method: Retinopathy was induced in C57/BL6 mice by placing seven day old mice with their dams in an oxygen tent and maintaining the animals in a 75% oxygen/25% nitrogen environment until day twelve. On day twelve, the animals were removed from the tent and placed at ambient atmosphere (21% oxygen). From day twelve through day sixteen, pups were treated via intraperitoneal injection once per day with 100 μl of either phosphate buffered saline (PBS) vehicle, or 11.2 μg or 22.4 μg PEDF in PBS. Pups were anesthetized with Metaphane and perfused with 1 ml of fixative (4% paraformaldehyde/100 mM sodium phosphate buffer (pH 7.2)/4% sucrose) through the left ventricle of the heart. Eyes were removed and placed in fixative, embedded in paraffin, and processed for histologic examination. Cross sections of the eye were made, stained with hematoxylin-phloxine-saffarin (HPS), and the number of endothelial cell nuclei crossing the inner limiting membrane of the retina were counted in one cross section that contained the cornea, lens, retina and optic nerve. FIG. 16A illustrates retinopathy in the eye of a PBS treated animal, the box surrounds a vascular tuft that has penetrated the inner limiting membrane of the retinal in the low power picture. FIGS. 16C and 16D illustrate the eye of a PEDF treated mouse, no vascular tufts are present. The # of endothelial cell nuclei were quantified (Table 3).

[3] = test system: skin of athymic (nude/nude) mice; test: Hair follicle density in skin of athymic nude mice after PEDF injection; assay type: in vivo, mouse; details: 2 μg purified PEDF daily for four days into tumors; FIG. 8
Method: FIG. 8, comprising FIGS. 8A, 8B and 8C, is a series of images of photomicrographs of sections of skin obtained from animals treated with PEDF, wherein hair follicles are depicted. Human neuroblastoma tumors growing subcutaneously in nude mice were injected at 2-3 sites/tumor for four consecutive days with 2 μg of purified PEDF. On the fifth day, hair was noticed growing over the treated tumors. […] Similar increases in hair follicle density have been seen in the absence of tumors following injection of purified PEDF.
The treatment consisted of injecting a total of 2 μg of purified histidine-tagged PEDF in a volume of 100 μl of phosphate buffered saline into 2-3 sites/tumor each day for 4 consecutive days. On the fifth day, a small area of increased hair growth was noticed over the injection sites. The mice were euthanized using an overdose of metaphane, and the tumors were surgically removed. Tumor tissue was sliced and placed in buffered formalin for at least 24 hours. Tissue was embedded in paraffin and prepared for histologic examination. The skin overlying neuroblastoma tumors treated with PEDF had increased hair follicle density when compared with the skin overlying tumors injected with saline vehicle (FIG. 8). Similar increases in hair follicle density have been seen in the absence of tumors following injection of purified PEDF.

[4] = test system: human dermal microvascular endothelial cells; test: Endothelial cell migration assay (modified Boyden chamber), human dermal microvascular endothelial cells; assay type: cell-based; details: 10 ng/ml bFGF plus PEDF; FIG. 1
Method: as §1
Additional truncated peptides derived from PEDF were tested for efficacy in the endothelial cell migration assay using human dermal microvascular endothelial cells (Clonetics, Cell Systems) at passage 9 in a modified Boyden Chamber, as described above, and the results are shown in FIG. 7. In FIG. 7A, the cells were exposed to the gradient of VEGF in the presence of purified recombinant PEDF (rPEDF), bacterially produced PEDF (BH) or PEDF peptides containing only amino acid residues 78-121 (44-mer) and 44-77 (34-mer) referring to SEQ ID NO:1. Neutralizing antibodies were added where shown to verify if the anti-angiogenic effect is specific to PEDF peptides and not due to contamination. Both full length PEDF preparations were used at 25 nM, neutralizing polyclonal antiserum against PEDF was used at 1:200 dilution, recombinant human VEGF (R&D Systems) at 200 pg/ml. In FIG. 7B, the cells were exposed to the gradient of VEGF in the presence of increasing concentrations of 34-mer and 44-mer peptides. The antiserum used in this experiment was not affinity purified, whereas the antiserum used in all other experiments presented herein was affinity purified.

B1: PEDF: full length pigment epithelium derived growth factor, SEQ ID NO:1; purified from WERI-Rb-27R medium or recombinant histidine-tagged (protein, listed as Homo Sapiens)
chain: MQALVLLLCIGALLGHSSCQNPASPPEEGSPDPDSTGALVEEEDPFFKVPVNKLAAAVSNFGYDLYRVRSSMSPTTNVLLSPLSVATALSALSLGADERTESIIHRALYYDLISSPDIHGTYKELLDTVTAPQKNLKSASRIVFEKKLRIKSSFVAPLEKSYGTRPRVLTGNPRLDLQEINNWVQAQMKGKLARSTKEIPDEISILLLGVAHFKGQWVTKFDSRKTSLEDFYLDEERTVRVPMMSDPKAVLRYGLDSDLSCKIAQLPLTGSMSIIFFLPLKVTQNLTLIEESLTSEFIHDIDRELKTVQAVLTVPKLKLSYEGEVTKSLQEMKLQSLFDSPDFSKITGKPIKLTQVEHRAGFEWNEDGAGTTPSPGLQPAHLTFPLDYHLNQPFIFVLRDTDTGALLFIGKILDPRGP
[1]
  inhibition of bFGF-induced proliferation: 40%
[2]; 10 ng/ml bFGF plus PEDF, FIG. 1
  migration, percentage of maximal migration: considerably less migration was observed
[2]; 0.1 μg/ml PEDF, aFGF, bFGF, IL-8, PDGF, VEGF, FIG. 3
  migration toward different angiogenic inducers: considerably inhibited; also recorded: inhibited endothelial cell migration toward every angiogenic inducer we tested
[2]; migration towards bFGF, FIGS. 4 and 5
  potency at inhibiting endothelial cell migration, dose response: active at sub-nanomolar concentrations
Retina of C57/BL6 mice; 11.2 μg PEDF/day intraperitoneal
  Mean number of endothelial cell nuclei crossing ILM into vitreous per cross section: 18.6 +/− 2.2*
Retina of C57/BL6 mice; 22.4 μg PEDF/day intraperitoneal
  Mean number of endothelial cell nuclei crossing ILM into vitreous per cross section: 18.2 +/− 2.5*
[3]
  density of hair follicles compared with vehicle-treated skin: three-fold increased density of hair follicles
[4]
  migration, percentage of maximal migration: considerably less migration was observed
